Measurements as given in article PMC3675161 (Biochemistry, 2013).

Target: the molecule itself
Experiment: SEC

B1: cytoplasmic portion of selenoprotein S with its native selenocysteine (cSelS) (domain or fragment, human, UniProt Q9BQE4 52-189, looked up)
chain: SARLRALRQRQLDRAAAAVEPDVVVKRQEALAAARLKMQEELNAQVEKHKEKLKQLEEEKRRQKIEMWDSMQEGKSYKGNAKKPQEEDSPGPSTSSVLKRKSDRKPLRGGGYNPLSGEGGGACSWRPGRRGPSSGGUG
modifications: selenocysteine at position 188
stoichiometry N: 2
